Data on 30 sequences can be found in the nanobody polyreactivity screen of Harvey et al. (2022).

This data set in a line: yeast display, Sf9 membrane polyspecificity reagent, FACS + sequencing; frameworks hold sequencing errors. The method, boiled down:
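Sorting gates, low and high (top ~1%), were placed on anti-HA fluorescence to track expression and on streptavidin fluorescence to track reagent binding. A clone's polyreactivity label is taken from the gate it came out of. The reagent was 10% biotinylated, detergent-solubilized Sf9 membrane, applied for 1 hour at 4 °C to galactose-induced yeast display cells.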
Take “QVQLLESGGGLVQAGGSLRLSCAASGYTFTWYAMGWYRQAPGTEREFVAAISIGGDSTYYADSVKGRFTNSRDNAKNTVYLLMNSLIPEDTAVYYCAADTYPRWILLIGELQVETSYDYWGQGTQVTVSS”: the “polyreactivity (PSR sort gate)” value is “low polyreactivity”.
Regarding “QVQLLESGGGLVQAGGSLRLSCAASRTISYAGTRLWYRQAPGKEREFVAGIGVGSNTNYADSVKGRYTIIRDNAINTVYLQMTSLKPEDTAVYYCAVGGYAPLGRPFWGQGTQVSVSS”, the “polyreactivity (PSR sort gate)” value is “low polyreactivity”.
As to “QVQLLESGGGLVQAGGSLRLSCAASVSIFPKNTMGWYIQAPGKERELVAAISKSGGSTYYADSVKGRFTISRDNAKNTVYLQMNSLKPEDTAVYYCAAALGLRSTSWGRRGGGGDYWGQGTQVTGSS”, the “polyreactivity (PSR sort gate)” value is recorded as “high polyreactivity”.
Then “QVQLLESGGGLVQAGGSLRLSCAPSGSTIAWYAMGWYIHAPGKERELVAAITQSGGSTYYADSVKGRFTISRDNEKNTVYLLMIRLKPEDTAVYYCAAYPGYAKYRYDFWGPGTQVTVSS”, with “high polyreactivity”.
Then “QVQLLESGGGLVQAGGSLRLSCASSGFIFAIYAMGWYRQAPGKERELVAAITSSSSTYADSVKGRFTISRDNAKNTVYLQMNSLKPEDTAVYYCAADTYSYRYSNDYWGQGTQVTVSS”, with “low polyreactivity”.
For “QVQLLESGGGLVQAGGSLRLSCASSGRTFRSYGMGWYRQAPGKERELVAVISWRDGSTFYADSVKGRFTISRDNAKNTVYLQMNSLKPEDTAVYYCNARGDVIVTPPKFSFKYEYWGQGTQVTVSS”, the “polyreactivity (PSR sort gate)” value was “low polyreactivity”.
Then “QVQLLESGGGLVQAGGSLRLSCASSGRTFVYYAMGRYRQAPGKERELVAAITFSGGSTYYADSVKGRFTISRDNAKNTVYLQMNSLKPEDTAVYYCAAQYRYSYPLGDYWGQGPQVTVSS”, with “low polyreactivity”.
As for “QVQLLESGGGLVQAGGSLRLSCMASGSILADRISWYRQAPRIEHELVATLYDGGITYYADSMKGRFTMSRDNAKNTVYLQMNSLRPEDTAVYYCGASFEGYRYHVYCGQGTQVTVSS”, the “polyreactivity (PSR sort gate)” value was “low polyreactivity”.
Then “QVQLLESGGGLVQAGGSLRLTCAASGFIFDQYGMGWYRQAPGKERELVASITSTGSTYYADSVKGRFTISRDNAKNTVYLQMNSLKPEDTAVYYCATDSYDGMDYWGHGTQVTVSS”, with “low polyreactivity”.
As for “QVQLLESGGGLVQAGGSLRLTCAASGLTFSNYAMGWYRQAPGKERELVADIRSGGNTNYADSVKGRFTISRDNAKNTVYLQMNSLKPEDTAVYYCATDGYRIDVYHPDYRYDYWGQGTQVTVSS”, the “polyreactivity (PSR sort gate)” value is on record as “low polyreactivity”.
For the sequence “QVQLLESGGGLVQAGGSLRLTCAASGRTFYRNAMGWYRPAPGKERELVAAISSGGSTTYADSVKGRFTISRDNAKNTVYLQMNSLKPEDTAVYYCAARSHAGSVSPRLKEYDYWGQGTQVTVSS”, the “polyreactivity (PSR sort gate)” value was “low polyreactivity”.
With “QVQLLESGGGLVQAGGSLSLTCAASGSTFTRYVMGWYRQAPGTETELVAAISSNGGRTYYADSVKGRFTISRDNAKNTVDLQMTSLKPEDTAVYYCNLVRYAYNASVVYWGQGTQVTVSS”, the “polyreactivity (PSR sort gate)” value was “high polyreactivity”.
“QVQLLESGGGLVQAGGTLRLSCAASGRTFYVNAMGWYRQAPGKERELVAAIRRGGSPNYADSVKGRFTISRDNEQNTVYLQMNSLKPEDTAVFYCNASPCGRKQYISPYDYRGQGTQVTVSS”: the “polyreactivity (PSR sort gate)” value is “low polyreactivity”.
Then “QVQLLESGGGLVQAGGTLRLSCSASGGIFVNYAMGWYRQAPGKERELVAAISRSGGSTYYADSVKGRFTISRDNAKNTVYLQLNSLKPEVTAVYYCNAVLQKYRFEYDYWGQGSQVTVSS”, with “high polyreactivity”; and “QVQLLESGGGLVQAGVSLRLSCAASGRIFPYNAMGRYRQAAGKVREFVAAIYYSGGRTYYADSVKGRFTITRDNAKNTVYIQMNSLKPEDTAVYFCDISRYDYTKTEGGYWGQGTQVTVSS”, with “low polyreactivity”; and “QVQLLESGGGLVQSGGSLRLSCAASGFIFYSYAMGGYRQAPGKERELVAAITEDGDSTYYADSVKWRFTISRDNAKNTVYLQMNSLNPEDTAGYYCNTDLTFNGTSGAYDYWGQGTQVTVSS”, with “low polyreactivity”.
Then “QVQLLESGGRLVQAGGSLRLSCAPSGFIFISYALGWYRQAPGKERELDAAIDWRGGSSTYYADSVKGRFTISRDNAKNTVYFPMISLKPEDTAVYYCAAEGVTWYLWDFYDFYGYWGQGTQVTVSS”, with “high polyreactivity”; and “QVQLLESGGRLVQAGGSLRLSCMASGSILGDRMSWYRQAPGKEHELVATIYDGGITYYADSMKGRFTISRDNAKNTVYLQMNSLRPEDTAVYYCGASFEGYRYHVYCGQGTQVTVSS”, with “low polyreactivity”.
For “QVQLLESRGGLVQAGGSLRLSCAASGRTIYTYAMGWYRQAPRTVRELVAAITYRGGNTYYADSVKGRFTISRDNAKYTVYLQMNSLKAEDTAVYDCIRRVAYLSGYSYDYWGQGTQVTVSS”, the “polyreactivity (PSR sort gate)” value is reported as “high polyreactivity”.
With “QVQLLESVGGLVQAGGSLRLSCAASGRIFGSNAMGWYRQAPGKERELVAAITRGGSTNYADSVKGRFTISRDNAKNTVYLQMNSLKPEDTAVYYCAVRWYRKYNYWGQGTQVTVSS”, the “polyreactivity (PSR sort gate)” value was “high polyreactivity”.
Then “QVQLLESVGGLVQAGGSLRLSCAASGRTFSRYAMGSYRQAPGKERELVATISSSGGTTYYADSVKGRFTISRDNAKNTVYLQMNSLKPEDTAVYYCNAESKKRTHASGYDYWGHGTQVTVSS”, with “low polyreactivity”; and “QVQLLETGGGLVQAGGSLRLSCAASGLIFYYNVMGWYIQAPGKERELVASISYSSTRTYYADSVKGRFTISRDNAKNTVYLQMNSLKPEDTAVYYCNAVIRNSWIRGYWGQGTQVTVSS”, with “low polyreactivity”.
For “QVQLLETGGGLVQAGGSLRLSCAPSGSIFDSYAMGWYRQAPGKERELVATINTSGGSTYYADSVKGRFTIHDNAKNTVYLQMNSLKPEDTAVYYCNAGRWDYWQNNFGDYGYWGQGTQVTVSS”, the “polyreactivity (PSR sort gate)” value was “low polyreactivity”.
Consider “QVQLLETGGGLVQAGGSLRLSFAASGSIFYRYSMVWYRQAPGKERELVAAISYSGGSTYYADSVKGRFTISRDNAKNTVYLQMNSLKPEDTAVYYCAKDYPPPISDYSRYYGYGYWGQGTQVTVSS”, for which the “polyreactivity (PSR sort gate)” value was “low polyreactivity”.
Take “QVQLLETGGGLVQAGRSLRLSCAASGFIFRANAMGWYRQAPGNERELVATISRSGGSTSYADSVKGRFTISRDNAKNTVYLQMNSLKPEDTAVYYCNKRTPYLRPILDYWGQGSQVTVSS”: the “polyreactivity (PSR sort gate)” value is given as “high polyreactivity”.
As to “QVQLLETGGGLVQAGVSLRLSSAASGRTFWTNGMGWYRQAPGKERELVASISTSGGRTYYADSVKGRFTISRDNSKNTVYLQMNSLKPEDTAVYYCAARALSHGARYDYWGQGTQVNVSS”, the “polyreactivity (PSR sort gate)” value is listed as “high polyreactivity”.
“QVQLQDSGGGLVQAGGSLRLSCAASGTISDRAGMGWYRQAPAQNAIVATIDRGTNTNYADSVKGRFTISRDNAKNTVYLQMNSLKPEDTAVYNCAADGRYYIYLDYWGQGTQVTVSS”: the “polyreactivity (PSR sort gate)” value is listed as “low polyreactivity”.
With “QVQLQDSGGGLVQAGGSLRLSCAASGYIFGSGSMGWFRQAPGKERELVATINNGSSTYYADSVKGRFTISRDNAINTVYLQMNSLKPEDTAVYYCAAVRIRPLRYYYWGQGTQVTVSS”, the “polyreactivity (PSR sort gate)” value is recorded as “high polyreactivity”.
For “QVQLQDSGVGLVQAGGSLRLSCAASGTISYRYRMGSYRQAPRKELELVAGISFGSITYNADSVKGRFTISRDNAKNTVYLQMNSLKPEDIAVYYCAVYQKSYRFFPYWGQGTQVTVSS”, the “polyreactivity (PSR sort gate)” value is given as “high polyreactivity”.
Then “QVQLQECGCGLVQAGCSLRLSCAASGTFSNSLKWLYCQAPGKEREFVATIGVGGSTNYADSVKGRFTISRDNAKNTVYLQMNSLKPEDTAVYYCAARLDTVTDYYYWGQGTQVTVSS”, with “low polyreactivity”.
